Results from article PMC13225215, “Kinetic properties of optogenetic site-specific DNA recombination by LiCre-loxP”.

B1: half loxP (1Y70/1Y71) (dsDNA)
DNA 1: CGGAATTCAGATCTATAACTTCGTATAATGTGTCTAGAGGATCCGC
DNA 2: GCGGATCCTCTAGACACATTATACGAAGTTATAGATCTGAATTCCG

What was measured:
[1] = target: LiCre (asLOV2-Cre chimera) (synthetic chimera (Avena sativa LOV2?)) (UniProt P06956); test: SPR; conditions: SPR (Biacore T200, SA chip): 20 mM Tris pH 7.4, 50 mM KCl, 150 mM NaCl, 10 mM MgCl2, 1 mM DTT, 0.05% P20; 25 C; 0.3125-10 nM protein; no blue light
[2] = target: Cre recombinase (UniProt P06956 1-343); test: SPR; KD1, first unit; global kinetic fit of half and full site data; 10 mM Mg2+; no blue light; SPR (Biacore T200, SA chip): 20 mM Tris pH 7.4, 50 mM KCl, 150 mM NaCl, 10 mM MgCl2, 1 mM DTT, 0.05% P20; 25 C; 0.3125-10 nM protein; no blue light; conditions: protein: recombinant; tags: N-terminal 6xHis; chain copies: 2; label: 5'-biotin on 1Y70; blunt

Molecule | Kd [1] [nM] | Kd [2] [nM]
CGGAATTCAGATCTATAACTTCGTATAATGTGTCTAGAGGATCCGC (double strand) [half loxP (1Y70/1Y71)] | 0.49 | 
CGGAATTCACAACTTCGTATAATGTATGCTATACGAAGTTATGGATCCGC (double strand) [full loxP (1Y68/1Y69)] | 0.0061 | 
B1 |  | 1.15
